Patent US20260234242A1 (HAINAN SIMCERE ZAIMING PHARMACEUTICAL, published 2026)

Columns and labels:
[1] = target: T1, his-tagged human CDH6 extracellular region protein (hCDH6 ECD-his) (human, UniProt P55285 19-615); assay: ELISA, coated antigen; ELISA, coated hCDH6-his; later run beside the hCDH6-14 humanized antibodies (Table 19)
T1 construct: also called Human CDH6-his; hCDH6-his; not shown: his tag
T1 sequence: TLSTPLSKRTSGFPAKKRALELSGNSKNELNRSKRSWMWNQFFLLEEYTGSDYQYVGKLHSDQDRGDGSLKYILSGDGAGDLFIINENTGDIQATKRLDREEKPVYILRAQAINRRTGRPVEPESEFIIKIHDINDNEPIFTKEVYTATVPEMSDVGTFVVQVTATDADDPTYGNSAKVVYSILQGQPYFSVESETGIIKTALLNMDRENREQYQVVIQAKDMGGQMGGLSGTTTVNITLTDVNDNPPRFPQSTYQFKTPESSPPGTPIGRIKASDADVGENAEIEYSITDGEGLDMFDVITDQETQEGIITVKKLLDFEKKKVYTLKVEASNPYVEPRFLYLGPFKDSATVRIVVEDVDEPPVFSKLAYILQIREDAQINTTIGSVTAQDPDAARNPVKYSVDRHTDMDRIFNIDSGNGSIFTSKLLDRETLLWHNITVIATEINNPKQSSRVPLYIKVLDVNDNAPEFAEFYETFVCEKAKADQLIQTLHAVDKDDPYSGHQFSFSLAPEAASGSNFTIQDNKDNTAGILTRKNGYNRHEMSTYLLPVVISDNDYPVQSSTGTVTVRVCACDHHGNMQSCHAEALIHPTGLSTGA

[2] = target: T2, human CDH6 with EC2 removed, on HEK293T cells (HEK293T-hCDH6-EC2 deletion) (human, UniProt P55285 54-790); assay: FACS, HEK293T-hCDH6-EC2 deletion cells
T2 construct: Signal peptide not removed here
T2 sequence: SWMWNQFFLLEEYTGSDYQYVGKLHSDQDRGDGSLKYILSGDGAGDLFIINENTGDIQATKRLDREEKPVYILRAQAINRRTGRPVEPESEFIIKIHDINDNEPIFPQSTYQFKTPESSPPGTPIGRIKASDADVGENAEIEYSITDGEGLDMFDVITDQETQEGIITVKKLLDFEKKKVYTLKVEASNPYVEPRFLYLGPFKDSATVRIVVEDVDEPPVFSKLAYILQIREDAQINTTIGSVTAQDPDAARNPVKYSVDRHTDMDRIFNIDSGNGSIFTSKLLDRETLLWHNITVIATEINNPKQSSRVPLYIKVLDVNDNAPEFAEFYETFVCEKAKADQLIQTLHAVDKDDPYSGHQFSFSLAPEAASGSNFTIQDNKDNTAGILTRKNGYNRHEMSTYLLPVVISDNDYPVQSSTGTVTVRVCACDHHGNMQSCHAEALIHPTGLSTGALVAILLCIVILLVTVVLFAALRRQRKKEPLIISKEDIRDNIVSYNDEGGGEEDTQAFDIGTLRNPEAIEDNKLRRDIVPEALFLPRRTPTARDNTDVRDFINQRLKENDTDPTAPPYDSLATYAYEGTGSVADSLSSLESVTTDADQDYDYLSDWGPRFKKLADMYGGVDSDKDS

[3] = target: T3, human CDH6 with EC3 removed, on HEK293T cells (HEK293T-hCDH6-EC3 deletion) (human, UniProt P55285 54-790); assay: FACS, HEK293T-hCDH6-EC3 deletion cells
T3 construct: Signal peptide not removed here
T3 sequence: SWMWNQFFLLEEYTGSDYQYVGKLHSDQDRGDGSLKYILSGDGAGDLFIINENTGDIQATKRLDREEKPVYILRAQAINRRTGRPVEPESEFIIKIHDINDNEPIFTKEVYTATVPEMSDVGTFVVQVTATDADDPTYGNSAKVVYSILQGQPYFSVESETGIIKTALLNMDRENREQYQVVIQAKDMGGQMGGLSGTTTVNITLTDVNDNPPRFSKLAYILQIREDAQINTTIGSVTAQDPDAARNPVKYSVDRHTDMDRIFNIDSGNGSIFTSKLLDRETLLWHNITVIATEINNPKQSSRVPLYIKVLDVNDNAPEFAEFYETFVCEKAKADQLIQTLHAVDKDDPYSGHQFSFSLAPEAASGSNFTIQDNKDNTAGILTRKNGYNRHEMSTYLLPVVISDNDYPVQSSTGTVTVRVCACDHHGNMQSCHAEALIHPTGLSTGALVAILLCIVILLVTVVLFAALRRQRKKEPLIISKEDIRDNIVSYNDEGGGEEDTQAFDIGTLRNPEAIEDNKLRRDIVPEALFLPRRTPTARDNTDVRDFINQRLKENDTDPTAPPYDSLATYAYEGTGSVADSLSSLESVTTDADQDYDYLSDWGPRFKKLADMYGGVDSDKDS

B1: CHI-CDH6-14 (antibody, human IgG1, kappa, V domains shown)
VH: QIQLQQSGPELVKPGTSVKISCKASGYTFTDNYINWVRQRPGQGLEWIGWIYPGTGNSYYNEKFKGKATLTVDTSSSTAYMQFSSLTSEDSAVYLCASSYGDSFDYWGQGTTLTVSS
VL: DIQMTQTTSSLSASLGNRVTISCRASQDIRNYLNWYQQKPDGTFKLLISYTSRLHSGVPSRFSGSGSGTDYSLTVSNLEPEDIATYYCQQYSQLPWTFGGGSRLEIKR
notes: also called CHI-hCDH6-14; CH1-CDH6-14
[1]
  EC50: 0.034 nM

B2: CHI-CDH6-4 (antibody, human IgG1, kappa, V domains shown)
VH: QVQLQQSGPELVKPGASVKISCKASGYAFSNFWMNWVKQRPGKGLEWIGWIYPGDGDTNYNGKFKDKATLTADKSSSTAYIQLSSLTSEDSAVYFCARLYDAWGFFDYWGQGTTLTVSS
VL: QIVLTQSPAIMSASPGQKVTITCSASSSVNYMHWYQQKLGSSPKLWIYDKSKLAPGVPARFSGSGSGTSYSLTISSMEAEDAASYFCHQWSSYPPMTFGGGTKLEIKR
notes: also called CH1-CDH6-4; chimeric antibody of murine CDH6-4
[2]
  binding result: no binding

B3: CHI-CDH6-12 (antibody, human IgG1, kappa, V domains shown)
VH: EVNLVESGGGLVQPGDSLTLSCSASGFTFTDYYMSWVRQFPGKALEWLALIRNKANSYTTEYSASVKGRFTISRDNSQSILYLQMNALRAEDSATYYCARDSYYSHDGFAYWGQGTLVTVSA
VL: DIVLTQSPASLAVSLGQRATISCRASKSVSTSSYTYMHWYQQKPGQPPKLLIKFASYLESGVPARFSGSGSGTDFTLNIHPVEEEDAATYYCQHSREFPFTFGTGTKLEIKR
notes: also called CH1-CDH6-12; chimeric antibody of murine CDH6-12
[3]
  binding result: no binding
